Data taken from patent publication US11833164B2, “Methods of treating Fabry disease in patients having a mutation in the GLA gene” (Amicus Therapeutics, Inc., priority 2019, dated 2023).
Substitutions are numbered along the chain they refer to. Names may count otherwise.

B1: F145L (protein)
chain: MQLRNPELHLGCALALRFLALVSWDIPGARALDNGLARTPTMGWLHWERFMCNLDCQEEPDSCISEKLFMEMAELMVSEGWKDAGYEYLCIDDCWMAPQRDSEGRLQADPQRFPHGIRQLANYVHSKGLKLGIYADVGNKTCAGLPGSFGYYDIDAQTFADWGVDLLKFDGCYCDSLENLADGYKHMSLALNRTGRSIVYSCEWPLYMWPFQKPNYTEIRQYCNHWRNFADIDDSWKSIKSILDWTSFNQERIVDVAGPGGWNDPDMLVIGNFGLSWNQQVTQMALWAIMAAPLFMSNDLRHISPQAKALLQDKDVIAINQDPLGKQGYQLRQGDNFEVWERPLSGLAWAVAMINRQEIGGPRSYTIAVASLGKGVACNPACFITQLLPVKRKLGFYEWTSRLRSHINPTGTVLLQLENTMQMSLKDLL
B2: G147A (protein)
chain: B1 chain with L145F, G147A
B3: P146H (protein)
chain: B1 chain with L145F, P146H
B4: G150E (protein)
chain: B1 chain with L145F, G150E
B5: Y151D (protein)
chain: B1 chain with L145F, Y151D
B6: Y151S (protein)
chain: B1 chain with L145F, Y151S
B7: G150V (protein)
chain: B1 chain with L145F, G150V
B8: S148G (protein)
chain: B1 chain with L145F, S148G
B9: P146A (protein)
chain: B1 chain with L145F, P146A
B10: Y151C (protein)
chain: B1 chain with L145F, Y151C
B11: F145Y (protein)
chain: B1 chain with L145Y

Each molecule was assayed on mutant form of α-Gal A expressed in HEK-293 cells (assay: HEK assay (GLP HEK / Migalastat Amenability Assay): α-Gal A activity in lysates of transiently transfected HEK-293 cells incubated with or without 10 μM migalastat). Settings: 10 μM migalastat versus baseline.
Type: cell-based, human
In short: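 HEK-293 cells transiently transfected with mutant α-Gal A and incubated with or without 10 μM migalastat; lysate activity given as nmol free 4-MU released per mg protein per hour. Values are mean±SEM.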

Going from B1 to B2, the “Absolute increase (% WT)” value falls from 61.8 % WT to 3.0 % WT.

Compared with B3, B4 is lower in “Absolute increase (% WT)” value: 21.8 % WT for the first, 12.3 % WT for the second.

Compared with B5, B6 is higher in “Absolute increase (% WT)” value: 11.5 % WT for the first, 22.2 % WT for the second.

First: B7
Second: B8
The “Absolute increase (% WT)” value of the first is lower: 9.2 % WT for the first, 11.8 % WT for the second.

Going from B9 to B10, the “Absolute increase (% WT)” value falls from 25.4 % WT to 13.2 % WT.

With B11 the “Absolute increase (% WT)” value was 23.5 % WT.

Same assay, conditions: 10 μM migalastat α-Gal A activity relative to baseline

First: B1
Second: B3
The Relative increase of the first is higher: 5.5 for the first, 3.7 for the second.

Going from B4 to B5, the Relative increase rises from 1.2 to 1.4.

Going from B6 to B7, the Relative increase rises from 1.3 to 4.3.

Going from B8 to B9, the Relative increase falls from 11.2 to 1.6.

Going from B10 to B11, the Relative increase falls from 1.4 to 1.2.

Same assay, conditions: 10 μM migalastat, 5 days; percentage of baseline wild-type α-Gal A activity; mean ± SEM

Compared with B1, B2 is lower in “10 μM migalastat α-Gal A activity (% WT)” value: 75.7 ± 2.9 % WT for the first, 3 ± 0.2 % WT for the second.

Going from B3 to B4, the “10 μM migalastat α-Gal A activity (% WT)” value rises from 30.2 ± 2.1 % WT to 73.8 ± 7 % WT.

Going from B5 to B6, the “10 μM migalastat α-Gal A activity (% WT)” value rises from 40.8 ± 2.2 % WT to 107 ± 4.9 % WT.

B7 and B8 are within error of each other in “10 μM migalastat α-Gal A activity (% WT)” value: 12.1 ± 0.7 % WT for the first, 12.9 ± 1 % WT for the second.

Compared with B9, B10 is lower in “10 μM migalastat α-Gal A activity (% WT)” value: 64.1 ± 4.4 % WT for the first, 45.6 ± 2 % WT for the second.

In the case of B11, the “10 μM migalastat α-Gal A activity (% WT)” value is reported as 131.7 ± 5.1 % WT.

Same assay, conditions: absence of migalastat; mean activity below the limit of detection (<142 nmol/mg/hr)

With B2 the “Baseline α-Gal A activity (nmol/mg/hr)” value was “BLD (“BLD” indicates that the mean α-Gal A activity was below the limit of detection (<142 nmol/mg/hr))”.

Same assay, conditions: absence of migalastat; percentage of baseline wild-type α-Gal A activity; mean ± SEM

First: B1
Second: B3
The “Baseline α-Gal A activity (% WT)” value of the first is higher: 13.9 ± 0.8 % WT for the first, 8.5 ± 0.7 % WT for the second.

Compared with B4, B5 is lower in “Baseline α-Gal A activity (% WT)” value: 61.5 ± 6.6 % WT for the first, 29.3 ± 1.7 % WT for the second.

Going from B6 to B7, the “Baseline α-Gal A activity (% WT)” value falls from 84.8 ± 4.2 % WT to 2.9 ± 0.1 % WT.

First: B8
Second: B9
The “Baseline α-Gal A activity (% WT)” value of the first is lower: 1.1 ± 0.1 % WT for the first, 38.7 ± 2.5 % WT for the second.

First: B10
Second: B11
The “Baseline α-Gal A activity (% WT)” value of the first is lower: 32.4 ± 1.5 % WT for the first, 108.1 ± 6.2 % WT for the second.

Same assay, conditions: lysates of HEK-293 cells transfected with the mutant form, incubated 5 days in the absence of migalastat; mean ± SEM

Going from B1 to B3, the “Baseline α-Gal A activity” value falls from 5455 ± 412 nmol/mg/h to 3220 ± 211 nmol/mg/h.

First: B4
Second: B5
The “Baseline α-Gal A activity” value of the first is higher: 18804 ± 1070 nmol/mg/h for the first, 10673 ± 604 nmol/mg/h for the second.

First: B6
Second: B7
The “Baseline α-Gal A activity” value of the first is higher: 30047 ± 1943 nmol/mg/h for the first, 1080 ± 63 nmol/mg/h for the second.

Going from B8 to B9, the “Baseline α-Gal A activity” value rises from 435 ± 55 nmol/mg/h to 15393 ± 1271 nmol/mg/h.

First: B10
Second: B11
The “Baseline α-Gal A activity” value of the first is lower: 11271 ± 579 nmol/mg/h for the first, 41985 ± 2942 nmol/mg/h for the second.

Same assay, conditions: lysates of HEK-293 cells transfected with the mutant form, incubated 5 days with 10 μM migalastat; mean ± SEM

Going from B1 to B2, the “10 μM migalastat α-Gal A activity” value falls from 29794 ± 1799 nmol/mg/h to 1159 ± 74 nmol/mg/h.

Going from B3 to B4, the “10 μM migalastat α-Gal A activity” value rises from 11903 ± 844 nmol/mg/h to 22710 ± 1059 nmol/mg/h.

First: B5
Second: B6
The “10 μM migalastat α-Gal A activity” value of the first is lower: 15196 ± 1025 nmol/mg/h for the first, 37527 ± 2003 nmol/mg/h for the second.

B7 and B8 are within error of each other in “10 μM migalastat α-Gal A activity” value: 4639 ± 361 nmol/mg/h for the first, 4879 ± 263 nmol/mg/h for the second.

First: B9
Second: B10
The “10 μM migalastat α-Gal A activity” value of the first is higher: 25029 ± 1628 nmol/mg/h for the first, 15859 ± 752 nmol/mg/h for the second.

In the case of B11, the “10 μM migalastat α-Gal A activity” value is reported as 51524 ± 2970 nmol/mg/h.
